This passage reports Kd and IC50 (cell based potency assay) results from patent publication US20260193334A1 (ZOETIS SERVICES, published 2026).

Where a chain is given by its changes, count along the chain named. Names and notes keep the numbering of the source.

The labels stand for the following.
B1: caninized anti-IL31 antibody 34D03, canine IgGB (65), N434H (antibody)
heavy: EVQLVESGGDLVKPGGSLRLSCVASGFTFSNYGMSWVRQAPGKGLQWVATISYGGSYTYYPDNIKGRFTISRDNAKNTLYLQMNSLRAEDTAMYYCVRGYGYDTMDYWGQGTLVTVSSASTTAPSVFPLAPSCGSTSGSTVALACLVSGYFPEPVTVSWNSGSLTSGVHTFPSVLQSSGLYSLSSMVTVPSSRWPSETFTCNVAHPASKTKVDKPVPKRENGRVPRPPDCPKCPAPEMLGGPSVFIFPPKPKDTLLIARTPEVTCVVVDLDPEDPEVQISWFVDGKQMQTAKTQPREEQFNGTYRVVSVLPIGHQDWLKGKQFTCKVNNKALPSPIERTISKARGQAHQPSVYVLPPSREELSKNTVSLTCLIKDFFPPDIDVEWQSNGQQEPESKYRTTPPQLDEDGSYFLYSKLSVDKSRWQRGDTFICAVMHEALHHHYTQESLSHSPGK
VL: EIVMTQSPASLSLSQEEKVTITCKASQSVSFAGTGLMHWYQQKPGQAPKLLIYRASNLEAGVPSRFSGSGSGTDFSFTISSLEPEDVAVYYCQQSREYPWTFGQGTKLEIK
notes: also called mAb1 N434H; ID No. 31
B2: anti-TGFβ antibody ZTS-4155, canine IgGB (65), N434H (antibody)
heavy: EVQLVQSGAEVKKPGASVKVSCKTSGYTFITYWMNWVRQAPGAGLDWMGQIFPASGSTNYNEMFEGRVTLTADTSTSTAYMELSSLRAGDIAVYYCARGDGNYALDAMDYWGQGTLVTASTTAPSVFPLAPSCGSTSGSTVALACLVSGYFPEPVTVSWNSGSLTSGVHTFPSVLQSSGLYSLSSMVTVPSSRWPSETFTCNVAHPASKTKVDKPVPKRENGRVPRPPDCPKCPAPEMLGGPSVFIFPPKPKDTLLIARTPEVTCVVVDLDPEDPEVQISWFVDGKQMQTAKTQPREEQFNGTYRVVSVLPIGHQDWLKGKQFTCKVNNKALPSPIERTISKARGQAHQPSVYVLPPSREELSKNTVSLTCLIKDFFPPDIDVEWQSNGQQEPESKYRTTPPQLDEDGSYFLYSKLSVDKSRWQRGDTFICAVMHEALHHHYTQESLSHSPGK
VL: DIVMTQTPPSLSVSPRETASISCRASESVDSYGNSFMHWYLQKPGQSPQLLIYLASNLESGVSDRFSGSGSGTDFTLRISRVEANDTGVYYCQQNNEDPLTFGQ
notes: See m9; also called mAb3 N434H
B3: anti-TGFβ antibody ZTS-4155, canine IgGB (65), N434M (antibody)
chain 1: EVQLVQSGAEVKKPGASVKVSCKTSGYTFITYWMNWVRQAPGAGLDWMGQIFPASGSTNYNEMFEGRVTLTADTSTSTAYMELSSLRAGDIAVYYCARGDGNYALDAMDYWGQGTLVTVSSASTTAPSVFPLAPSCGSTSGSTVALACLVSGYFPEPVTVSWNSGSLTSGVHTFPSVLQSSGLYSLSSMVTVPSSRWPSETFTCNVAHPASKTKVDKPVPKRENGRVPRPPDCPKCPAPEMLGGPSVFIFPPKPKDTLLIARTPEVTCVVVDLDPEDPEVQISWFVDGKQMQTAKTQPREEQFNGTYRVVSVLPIGHQDWLKGKQFTCKVNNKALPSPIERTISKARGQAHQPSVYVLPPSREELSKNTVSLTCLIKDFFPPDIDVEWQSNGQQEPESKYRTTPPQLDEDGSYFLYSKLSVDKSRWQRGDTFICAVMHEALHMHYTQESLSHSPGK
chain 2: DIVMTQTPPSLSVSPRETASISCRASESVDSYGNSFMHWYLQKPGQSPQLLIYLASNLESGVSDRFSGSGSGTDFTLRISRVEANDTGVYYCQQNNEDPLTFGQGTKLEIKRNDAQPAVYLFQPSPDQLHTGSASVVCLLNSFYPKDINVKWKVDGVIQDTGIQESVTEQDKDSTYSLSSTLTMSSTEYLSHELYSCEITHKSLPSTLIKSFQRSEC
B4: anti-TGFβ antibody ZTS-4155, canine IgGB (65), N434T (antibody)
chain 1: B3 chain 1 with M443T
chain 2: B3 chain 2
B5: anti-TGFβ antibody ZTS-4155, canine IgGB (65), N434R (antibody)
chain 1: B3 chain 1 with M443R
chain 2: B3 chain 2
B6: anti-TGFβ antibody ZTS-4155, canine IgGB (65), N434W (antibody)
chain 1: B3 chain 1 with M443W
chain 2: B3 chain 2
B7: anti-TGFβ antibody ZTS-4155, canine IgGB (65), N434Q (antibody)
chain 1: B3 chain 1 with M443Q
chain 2: B3 chain 2
B8: anti-TGFβ antibody ZTS-4155, canine IgGB (65), N434C (antibody)
chain 1: B3 chain 1 with M443C
chain 2: B3 chain 2
B9: anti-TGFβ antibody ZTS-4155, canine IgGB (65), N434V (antibody)
chain 1: B3 chain 1 with M443V
chain 2: B3 chain 2
B10: anti-TGFβ antibody ZTS-4155, canine IgGB (65), N434Y (antibody)
chain 1: B3 chain 1 with M443Y
chain 2: B3 chain 2
B11: caninized anti-NGF antibody mAb2 of Tables 1-3, canine IgGB (65), wild-type (antibody, part only; not given: Anti-NGF heavy and light variable domains, part only)
heavy, part: ASTTAPSVFPLAPSCGSTSGSTVALACLVSGYFPEPVTVSWNSGSLTSGVHTFPSVLQSSGLYSLSSMVTVPSSRWPSETFTCNVAHPASKTKVDKPVPKRENGRVPRPPDCPKCPAPEMLGGPSVFIFPPKPKDTLLIARTPEVTCVVVDLDPEDPEVQISWFVDGKQMQTAKTQPREEQFNGTYRVVSVLPIGHQDWLKGKQFTCKVNNKALPSPIERTISKARGQAHQPSVYVLPPSREELSKNTVSLTCLIKDFFPPDIDVEWQSNGQQEPESKYRTTPPQLDEDGSYFLYSKLSVDKSRWQRGDTFICAVMHEALHNHYTQESLSHSPGK
B12: caninized anti-NGF antibody mAb2 of Tables 1-3, canine IgGB (65), N434H (antibody, part only; not given: Anti-NGF heavy and light variable domains, part only)
heavy, part: B11 heavy, part with N322H
B13: anti-TGFβ antibody ZTS-4155, canine IgGB (65), wild-type (antibody)
heavy: B2 heavy with H440N
VL: B2 VL
notes: built here as variable domain plus IgGB constant domain; also called mAb3 WT
B14: caninized anti-IL31 antibody 34D03, canine IgGB (65), wild-type (antibody)
heavy: B1 heavy with H440N
VL: B1 VL
notes: also called mAb1 WT; ID No. 8

T1 sequence (A0A8I3PFR8 entry or part of it, one chain of several): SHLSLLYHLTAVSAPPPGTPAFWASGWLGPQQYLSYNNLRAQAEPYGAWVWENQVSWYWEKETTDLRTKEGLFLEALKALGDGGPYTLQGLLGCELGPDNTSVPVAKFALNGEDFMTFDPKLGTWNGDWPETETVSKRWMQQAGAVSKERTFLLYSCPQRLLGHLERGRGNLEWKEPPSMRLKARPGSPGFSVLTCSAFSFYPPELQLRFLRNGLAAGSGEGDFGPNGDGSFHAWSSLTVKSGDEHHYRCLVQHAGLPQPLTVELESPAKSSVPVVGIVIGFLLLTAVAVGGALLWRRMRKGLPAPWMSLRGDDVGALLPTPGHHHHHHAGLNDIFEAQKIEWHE

One test concerns the target T1, canine FcRn complex (FcRn-α subunit and β-microglobulin) (canine, UniProt A0A8I3PFR8 25-347, biotin labeled through BirA enzymatic reaction in Example 5). The test is described as follows: SPR (Biacore), FcRn amine-coupled on CM5, IgG as analyte, pH 7.2, 15 C.
A word on the Kd: it is the concentration at which binding is half-saturated. Low values mean a tighter complex, high ones a looser complex. With B1, the Kd turned out to be 5000 nM.

B2 gave a dissociation constant Kd of 38 nM.

For the molecule B3, the Kd is 11 nM.

As for B4, the Kd is 406 nM.

The molecule B5 gave a Kd of 285 nM. The Kd values of the last two molecules are within 1.5-fold of each other.

The molecule B6 returned a Kd of 162 nM.

Molecule B7 showed a Kd of 50.2 nM. Compared with the last molecule, the Kd is about 3.2-fold lower.

B8 came in with a Kd of 270 nM.

B9: the dissociation constant Kd was found to be 6.19 nM.

In turn, B10 displayed a dissociation constant Kd of 38.6 nM. This Kd is about 6.2-fold higher than that of the molecule before.

The target in a further test is NGF (target protein of mAb2). The test is described as follows: cell-based or functional assay.
B11 registered an IC50 (cell based potency assay) of 23.7 nM.

B12 yielded an IC50 (cell based potency assay) of 20.9 nM.

Another test addresses TGFβ (target protein of mAb3). The test is described as follows: cell-based or functional assay.
For the molecule B13, the IC50 (cell based potency assay) was found to be 0.13 µg/mL.

The target of the next test is IL-31 (target protein of mAb1). The test is described as follows: cell-based or functional assay.
B14 came in with an IC50 (cell based potency assay) of 1.1 nM.

With B1, the IC50 (cell based potency assay) amounted to 0.99 nM.

For a further test, the target named is canine FcRn complex (FcRn-α subunit and β-microglobulin) (canine). The test is described as follows: SPR (Biacore), FcRn amine-coupled on CM5, IgG as analyte, pH 6, 15 C.
On to B11, for which the Kd came to 57.2 nM.

In the case of B12, the Kd worked out at 7.3 nM.

A further test shares this target. The test is described as follows: SPR (Biacore), FcRn amine-coupled on CM5, IgG as analyte, pH 7.2, 15 C. (In general: Surface plasmon resonance follows binding to a sensor surface in real time, without labels.)
Take B12: the Kd is 1300 nM.

Another test deals with T1, canine FcRn complex (FcRn-α subunit and …). The test is described as follows: SPR (Biacore), FcRn amine-coupled on CM5, IgG as analyte, pH 6, 15 C.
Molecule B14 yielded an equilibrium dissociation constant (Kd) of 15 to 24.4 nM.

As to B1, the Kd fell in the range of 0.7 to 1.3 nM.

The molecule B13 returned a Kd of 523 nM. This counts as sub-micromolar.

Take B2: the dissociation constant (Kd) turned out to be 4.8 nM.

As for B3, the Kd came out at 18.8 nM.

The molecule B4 gave a Kd of 16.6 nM. This Kd and that of the molecule before are within 1.5-fold of each other.

In turn, B5 had a Kd of 2.7 nM.

As to B6, the Kd was found to be 2.11 nM.

The molecule B7 showed a Kd of 11.8 nM. This Kd is about 5.6-fold higher than that of the molecule before.

The molecule B9 came in with a dissociation constant (Kd) of 13.6 nM.

B10 yielded a dissociation constant (Kd) of 1.56 nM.
